Data: patent US20210388087A1 (Chugai, published 2021)
Where a chain is given by its changes, count along the chain named. In names and notes the source's numbering stands.

T1: Human CD3eg linker (human)
T1 construct: Single-chain construct; also called recombinant human CD3
T1 chain: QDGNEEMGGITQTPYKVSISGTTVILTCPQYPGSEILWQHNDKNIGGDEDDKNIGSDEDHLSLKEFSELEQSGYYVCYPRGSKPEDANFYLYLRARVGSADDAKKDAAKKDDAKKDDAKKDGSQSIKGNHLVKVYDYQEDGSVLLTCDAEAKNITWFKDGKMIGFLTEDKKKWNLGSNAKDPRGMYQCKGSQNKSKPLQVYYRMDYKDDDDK

B1: H183/L072 VL T31A (antibody, name in Kabat numbering, V domains shown)
VH: QVQLVESGGGLVQPGRSLRLSCAASGFTFSNAWMHWVRQAPGKGLEWVAQIKDKGNAYAAYYAPSVKGRFTISRDDSKNSIYLQMNSLKTEDTAVYYCHYVHYASASTVLPAFGVDAWGQGTTVTVSS
VL: DIVMTQSPLSLPVTPGEPASISCQASQELVHMNRNAYLHWYQQKPGQAPRLLIYKVSNRFPGVPDRFSGSGSGTDFTLKISRVEAEDVGVYYCAQGTSVPFTFGQGTKLEIK
B2: H183/L072 VL T31S (antibody, name in Kabat numbering, V domains shown)
VH: B1 VH
VL: B1 VL with A36S
B3: H183/L072 VL T92K (antibody, name in Kabat numbering, V domains shown)
VH: B1 VH
VL: B1 VL with A36T, T97K
B4: H183/L072 VL T92D (antibody, name in Kabat numbering, V domains shown)
VH: B1 VH
VL: B1 VL with A36T, T97D
B5: H183/L072 VL T97E (antibody, name in Kabat numbering, V domains shown)
VH: B1 VH
VL: B1 VL with A36T, T102E
B6: H183/L072 VL T31G (antibody, name in Kabat numbering, V domains shown)
VH: B1 VH
VL: B1 VL with A36G
B7: H183/L072 VL T92G (antibody, name in Kabat numbering, V domains shown)
VH: B1 VH
VL: B1 VL with A36T, T97G
B8: H183/L072 VL T92N (antibody, name in Kabat numbering, V domains shown)
VH: B1 VH
VL: B1 VL with A36T, T97N
B9: H183/L072 VL T31L (antibody, name in Kabat numbering, V domains shown)
VH: B1 VH
VL: B1 VL with A36L
B10: H183/L072 VL T92S (antibody, name in Kabat numbering, V domains shown)
VH: B1 VH
VL: B1 VL with A36T, T97S
B11: H183/L072 VL T31N (antibody, name in Kabat numbering, V domains shown)
VH: B1 VH
VL: B1 VL with A36N
B12: H183/L072 VL T31K (antibody, name in Kabat numbering, V domains shown)
VH: B1 VH
VL: B1 VL with A36K
B13: H183/L072 VL T92L (antibody, name in Kabat numbering, V domains shown)
VH: B1 VH
VL: B1 VL with A36T, T97L
B14: H183/L072 VL T92A (antibody, name in Kabat numbering, V domains shown)
VH: B1 VH
VL: B1 VL with A36T, T97A
B15: H183/L072 VL T92Q (antibody, name in Kabat numbering, V domains shown)
VH: B1 VH
VL: B1 VL with A36T, T97Q
B16: H183/L072 VL T97D (antibody, name in Kabat numbering, V domains shown)
VH: B1 VH
VL: B1 VL with A36T, T102D
B17: H183/L072 VL T31Q (antibody, name in Kabat numbering, V domains shown)
VH: B1 VH
VL: B1 VL with A36Q
B18: H183/L072 VL T31H (antibody, name in Kabat numbering, V domains shown)
VH: B1 VH
VL: B1 VL with A36H
B19: H183/L072 VL T31V (antibody, name in Kabat numbering, V domains shown)
VH: B1 VH
VL: B1 VL with A36V
B20: H183/L072 VL T92E (antibody, name in Kabat numbering, V domains shown)
VH: B1 VH
VL: B1 VL with A36T, T97E
B21: H183/L072 VL T92M (antibody, name in Kabat numbering, V domains shown)
VH: B1 VH
VL: B1 VL with A36T, T97M
B22: H183/L072 VL T92V (antibody, name in Kabat numbering, V domains shown)
VH: B1 VH
VL: B1 VL with A36T, T97V
B23: H183/L072 VL T97H (antibody, name in Kabat numbering, V domains shown)
VH: B1 VH
VL: B1 VL with A36T, T102H
B24: H183/L072 VL T31D (antibody, name in Kabat numbering, V domains shown)
VH: B1 VH
VL: B1 VL with A36D
B25: H183/L072 VL T92R (antibody, name in Kabat numbering, V domains shown)
VH: B1 VH
VL: B1 VL with A36T, T97R
B26: H183/L072 VL T31R (antibody, name in Kabat numbering, V domains shown)
VH: B1 VH
VL: B1 VL with A36R
B27: H183/L072 VL T31E (antibody, name in Kabat numbering, V domains shown)
VH: B1 VH
VL: B1 VL with A36E
B28: H183/L072 VL T92F (antibody, name in Kabat numbering, V domains shown)
VH: B1 VH
VL: B1 VL with A36T, T97F
B29: H183/L072 VL T31I (antibody, name in Kabat numbering, V domains shown)
VH: B1 VH
VL: B1 VL with A36I
B30: H183/L072 VL T97G (antibody, name in Kabat numbering, V domains shown)
VH: B1 VH
VL: B1 VL with A36T, T102G
B31: H183/L072 VL T97A (antibody, name in Kabat numbering, V domains shown)
VH: B1 VH
VL: B1 VL with A36T, T102A
B32: H183/L072 VL T97F (antibody, name in Kabat numbering, V domains shown)
VH: B1 VH
VL: B1 VL with A36T, T102F
B33: H183/L072 VL T92H (antibody, name in Kabat numbering, V domains shown)
VH: B1 VH
VL: B1 VL with A36T, T97H

Biological target: T1, Human CD3eg linker
Experiment: SPR; fold vs parent H183/L072

| fold change of affinity [fold] | Binder |
| --- | --- |
| 0.2 | B1 |
| 0.5 | B2 |
| 0.8 | B3 |
| 0 | B4 |
| 0.6 | B5 |
| 0 | B6 |
| 0.2 | B7 |
| 0.2 | B8 |
| 0 | B9 |
| 0.5 | B10 |
| 0 | B11 |
| 0.4 | B12 |
| 0.3 | B13 |
| 0.1 | B14 |
| 0 | B15 |
| 0.6 | B16 |
| 0.4 | B17 |

| fold change of affinity [fold] | Binder |
| --- | --- |
| 0.1 | B18 |
| 0.7 | B19 |
| 0 | B20 |
| 0.3 | B21 |
| 0.4 | B22 |
| 0.5 | B23 |
| 0 | B24 |
| 0.5 | B25 |
| 0.4 | B26 |
| 0.4 | B27 |
| 0.3 | B28 |
| 0.7 | B29 |
| 1 | B30 |
| 0.8 | B31 |
| 0.3 | B32 |
| 0.2 | B33 |
